Results taken from US5831013, “Capsid polypeptides and use to inhibit viral packaging” (The Research Foundation of State University of New York, dated 1998).

T1: ScVLa capsid protein Cap, full size (697 amino acids) (ScVLa virus of Saccharomyces cerevisiae)
T1 chain: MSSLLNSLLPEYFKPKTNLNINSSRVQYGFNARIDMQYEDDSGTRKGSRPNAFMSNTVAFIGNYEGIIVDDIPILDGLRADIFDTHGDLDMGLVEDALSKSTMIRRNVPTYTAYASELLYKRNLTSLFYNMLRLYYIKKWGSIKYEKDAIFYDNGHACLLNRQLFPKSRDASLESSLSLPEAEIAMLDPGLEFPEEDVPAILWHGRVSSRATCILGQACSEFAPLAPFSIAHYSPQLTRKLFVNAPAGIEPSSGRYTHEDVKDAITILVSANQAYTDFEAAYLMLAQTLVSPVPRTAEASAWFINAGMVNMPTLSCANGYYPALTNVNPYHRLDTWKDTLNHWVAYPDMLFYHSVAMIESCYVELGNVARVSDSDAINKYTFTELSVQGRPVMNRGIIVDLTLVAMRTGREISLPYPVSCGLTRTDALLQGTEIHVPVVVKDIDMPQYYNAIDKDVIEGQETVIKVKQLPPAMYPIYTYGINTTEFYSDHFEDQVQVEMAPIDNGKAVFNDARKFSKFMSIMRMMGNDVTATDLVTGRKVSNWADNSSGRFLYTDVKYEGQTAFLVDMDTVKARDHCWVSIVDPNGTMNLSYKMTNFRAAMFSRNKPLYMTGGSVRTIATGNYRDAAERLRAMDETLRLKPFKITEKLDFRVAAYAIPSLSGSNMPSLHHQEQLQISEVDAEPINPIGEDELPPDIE


Target: T1, ScVLa capsid protein Cap, full size …
Experiment: cell-based or functional assay

| Binder | Curing (%) of ScVLa [%] |
| --- | --- |
| La Cap N-terminal fragment of nonsense mutant pGLa1m3 (K506O, aa 1-505) (other) MSSLLNSLLPEYFKPKTNLNINSSRVQYGFNARIDMQYEDDSGTRKGSRPNAFMSNTVAFIGNYEGIIVDDIPILDGLRADIFDTHGDLDMGLVEDALSKSTMIRRNVPTYTAYASELLYKRNLTSLFYNMLRLYYIKKWGSIKYEKDAIFYDNGHACLLNRQLFPKSRDASLESSLSLPEAEIAMLDPGLEFPEEDVPAILWHGRVSSRATCILGQACSEFAPLAPFSIAHYSPQLTRKLFVNAPAGIEPSSGRYTHEDVKDAITILVSANQAYTDFEAAYLMLAQTLVSPVPRTAEASAWFINAGMVNMPTLSCANGYYPALTNVNPYHRLDTWKDTLNHWVAYPDMLFYHSVAMIESCYVELGNVARVSDSDAINKYTFTELSVQGRPVMNRGIIVDLTLVAMRTGREISLPYPVSCGLTRTDALLQGTEIHVPVVVKDIDMPQYYNAIDKDVIEGQETVIKVKQLPPAMYPIYTYGINTTEFYSDHFEDQVQVEMAPIDNG | 100 |
| La Cap N-terminal fragment of pGLa1d2 (aa 1-476) (other) MSSLLNSLLPEYFKPKTNLNINSSRVQYGFNARIDMQYEDDSGTRKGSRPNAFMSNTVAFIGNYEGIIVDDIPILDGLRADIFDTHGDLDMGLVEDALSKSTMIRRNVPTYTAYASELLYKRNLTSLFYNMLRLYYIKKWGSIKYEKDAIFYDNGHACLLNRQLFPKSRDASLESSLSLPEAEIAMLDPGLEFPEEDVPAILWHGRVSSRATCILGQACSEFAPLAPFSIAHYSPQLTRKLFVNAPAGIEPSSGRYTHEDVKDAITILVSANQAYTDFEAAYLMLAQTLVSPVPRTAEASAWFINAGMVNMPTLSCANGYYPALTNVNPYHRLDTWKDTLNHWVAYPDMLFYHSVAMIESCYVELGNVARVSDSDAINKYTFTELSVQGRPVMNRGIIVDLTLVAMRTGREISLPYPVSCGLTRTDALLQGTEIHVPVVVKDIDMPQYYNAIDKDVIEGQETVIKVKQLPPAMYPI | 100 |
| La Cap fragment of pGLa1d8 (aa 98-443) (other) LSKSTMIRRNVPTYTAYASELLYKRNLTSLFYNMLRLYYIKKWGSIKYEKDAIFYDNGHACLLNRQLFPKSRDASLESSLSLPEAEIAMLDPGLEFPEEDVPAILWHGRVSSRATCILGQACSEFAPLAPFSIAHYSPQLTRKLFVNAPAGIEPSSGRYTHEDVKDAITILVSANQAYTDFEAAYLMLAQTLVSPVPRTAEASAWFINAGMVNMPTLSCANGYYPALTNVNPYHRLDTWKDTLNHWVAYPDMLFYHSVAMIESCYVELGNVARVSDSDAINKYTFTELSVQGRPVMNRGIIVDLTLVAMRTGREISLPYPVSCGLTRTDALLQGTEIHVPVVVKDI | < 10 |
| La Cap N-terminal fragment of pGLa1d1 (aa 1-502) (other) MSSLLNSLLPEYFKPKTNLNINSSRVQYGFNARIDMQYEDDSGTRKGSRPNAFMSNTVAFIGNYEGIIVDDIPILDGLRADIFDTHGDLDMGLVEDALSKSTMIRRNVPTYTAYASELLYKRNLTSLFYNMLRLYYIKKWGSIKYEKDAIFYDNGHACLLNRQLFPKSRDASLESSLSLPEAEIAMLDPGLEFPEEDVPAILWHGRVSSRATCILGQACSEFAPLAPFSIAHYSPQLTRKLFVNAPAGIEPSSGRYTHEDVKDAITILVSANQAYTDFEAAYLMLAQTLVSPVPRTAEASAWFINAGMVNMPTLSCANGYYPALTNVNPYHRLDTWKDTLNHWVAYPDMLFYHSVAMIESCYVELGNVARVSDSDAINKYTFTELSVQGRPVMNRGIIVDLTLVAMRTGREISLPYPVSCGLTRTDALLQGTEIHVPVVVKDIDMPQYYNAIDKDVIEGQETVIKVKQLPPAMYPIYTYGINTTEFYSDHFEDQVQVEMAPI | 100 |
| La Cap N-terminal fragment of pGLa1d6 (aa 1-401) (other) MSSLLNSLLPEYFKPKTNLNINSSRVQYGFNARIDMQYEDDSGTRKGSRPNAFMSNTVAFIGNYEGIIVDDIPILDGLRADIFDTHGDLDMGLVEDALSKSTMIRRNVPTYTAYASELLYKRNLTSLFYNMLRLYYIKKWGSIKYEKDAIFYDNGHACLLNRQLFPKSRDASLESSLSLPEAEIAMLDPGLEFPEEDVPAILWHGRVSSRATCILGQACSEFAPLAPFSIAHYSPQLTRKLFVNAPAGIEPSSGRYTHEDVKDAITILVSANQAYTDFEAAYLMLAQTLVSPVPRTAEASAWFINAGMVNMPTLSCANGYYPALTNVNPYHRLDTWKDTLNHWVAYPDMLFYHSVAMIESCYVELGNVARVSDSDAINKYTFTELSVQGRPVMNRGIIVDL | < 10 |
| La Cap N-terminal fragment of pGLa1d4 (aa 1-428) (other) MSSLLNSLLPEYFKPKTNLNINSSRVQYGFNARIDMQYEDDSGTRKGSRPNAFMSNTVAFIGNYEGIIVDDIPILDGLRADIFDTHGDLDMGLVEDALSKSTMIRRNVPTYTAYASELLYKRNLTSLFYNMLRLYYIKKWGSIKYEKDAIFYDNGHACLLNRQLFPKSRDASLESSLSLPEAEIAMLDPGLEFPEEDVPAILWHGRVSSRATCILGQACSEFAPLAPFSIAHYSPQLTRKLFVNAPAGIEPSSGRYTHEDVKDAITILVSANQAYTDFEAAYLMLAQTLVSPVPRTAEASAWFINAGMVNMPTLSCANGYYPALTNVNPYHRLDTWKDTLNHWVAYPDMLFYHSVAMIESCYVELGNVARVSDSDAINKYTFTELSVQGRPVMNRGIIVDLTLVAMRTGREISLPYPVSCGLTRTDAL | 50 |
| La Cap N-terminal fragment of nonsense mutant pGLa1m4 (I443O, aa 1-442) (other) MSSLLNSLLPEYFKPKTNLNINSSRVQYGFNARIDMQYEDDSGTRKGSRPNAFMSNTVAFIGNYEGIIVDDIPILDGLRADIFDTHGDLDMGLVEDALSKSTMIRRNVPTYTAYASELLYKRNLTSLFYNMLRLYYIKKWGSIKYEKDAIFYDNGHACLLNRQLFPKSRDASLESSLSLPEAEIAMLDPGLEFPEEDVPAILWHGRVSSRATCILGQACSEFAPLAPFSIAHYSPQLTRKLFVNAPAGIEPSSGRYTHEDVKDAITILVSANQAYTDFEAAYLMLAQTLVSPVPRTAEASAWFINAGMVNMPTLSCANGYYPALTNVNPYHRLDTWKDTLNHWVAYPDMLFYHSVAMIESCYVELGNVARVSDSDAINKYTFTELSVQGRPVMNRGIIVDLTLVAMRTGREISLPYPVSCGLTRTDALLQGTEIHVPVVVKD | 100 |
| La Cap N-terminal fragment of pGLa1d5 (aa 1-418) (other) MSSLLNSLLPEYFKPKTNLNINSSRVQYGFNARIDMQYEDDSGTRKGSRPNAFMSNTVAFIGNYEGIIVDDIPILDGLRADIFDTHGDLDMGLVEDALSKSTMIRRNVPTYTAYASELLYKRNLTSLFYNMLRLYYIKKWGSIKYEKDAIFYDNGHACLLNRQLFPKSRDASLESSLSLPEAEIAMLDPGLEFPEEDVPAILWHGRVSSRATCILGQACSEFAPLAPFSIAHYSPQLTRKLFVNAPAGIEPSSGRYTHEDVKDAITILVSANQAYTDFEAAYLMLAQTLVSPVPRTAEASAWFINAGMVNMPTLSCANGYYPALTNVNPYHRLDTWKDTLNHWVAYPDMLFYHSVAMIESCYVELGNVARVSDSDAINKYTFTELSVQGRPVMNRGIIVDLTLVAMRTGREISLPYPV | < 10 |
| La Cap fragment of pGLa1d7 (aa 6-443) (other) NSLLPEYFKPKTNLNINSSRVQYGFNARIDMQYEDDSGTRKGSRPNAFMSNTVAFIGNYEGIIVDDIPILDGLRADIFDTHGDLDMGLVEDALSKSTMIRRNVPTYTAYASELLYKRNLTSLFYNMLRLYYIKKWGSIKYEKDAIFYDNGHACLLNRQLFPKSRDASLESSLSLPEAEIAMLDPGLEFPEEDVPAILWHGRVSSRATCILGQACSEFAPLAPFSIAHYSPQLTRKLFVNAPAGIEPSSGRYTHEDVKDAITILVSANQAYTDFEAAYLMLAQTLVSPVPRTAEASAWFINAGMVNMPTLSCANGYYPALTNVNPYHRLDTWKDTLNHWVAYPDMLFYHSVAMIESCYVELGNVARVSDSDAINKYTFTELSVQGRPVMNRGIIVDLTLVAMRTGREISLPYPVSCGLTRTDALLQGTEIHVPVVVKDI | < 10 |
